From article PMC2649980 (Proteins, 2009)

Target: the molecule itself
Assay: SEC

B1: D355R TRβ LBD (human thyroid hormone receptor beta ligand binding domain, a.a. 209-461, D355R), TRIAC-bound (domain or fragment, UniProt P10828 209-461, looked up)
chain: GHKPEPTDEEWELIKTVTEAHVATNAQGSHWKQKRKFLPEDIGQAPIVNAPEGGKVDLEAFSHFTKIITPAITRVVDFAKKLPMFCELPCEDQIILLKGCCMEIMSLRAAVRYDPESETLTLNGEMAVTRGQLKNGGLGVVSDAIFRLGMSLSSFNLDDTEVALLQAVLLMSSDRPGLACVERIEKYQDSFLLAFEHYINYRKHHVTHFWPKLLMKVTDLRMIGACHASRFLHMKVECPTELFPPLFLEVFED
stoichiometry N: 2
